According to patent publication US20110263485A1 (University of California, published 2011):

B1: C37-linker-CD4M33C1F23 (designed binder)
chain: HTTWMEWDREINNYTSLIHSLIEESQNQQEKNEQELLSSSGGGGSGGGGSSSSCNLHFCQLRCKSLGLLGKCAGSFCACV

Key:
Test in all cases: cell-based or functional assay
[1] = target: HIV-1 HXB2 env (X4) (gp120 and gp41) (HIV-1 strain HXB2, UniProt P04578 33-856; P04578 33-856)
[2] = target: HIV-1 ADA (R5) env (gp120 and gp41) (HIV-1 strain ADA)
[3] = target: HIV-1 JRFL (R5) env (gp120 and gp41) (HIV-1 strain JRFL)
[4] = target: HIV-1 ADA (R5) env (gp120 and gp41) (HIV-1 strain ADA); remark: listed apart in the source

Binder | X4 fusion assay IC50 [1] | R5 fusion assay IC50 [2] | R5 fusion with competition IC50 [2] | R5 fusion with wash-out on ADA cells IC50 [2] | R5 fusion with wash-out on P5L cells IC50 [2] | Inhibition of HIV single round pseudovirus in TZM-bl cells, JRFL (R5), IC50 [3] | Inhibition of HIV single round pseudovirus in TZM-bl cells, JRFL (R5), IC90 [3] | Inhibition of HIV single round pseudovirus in TZM-bl cells, ADA (R5), IC50 [4] | Inhibition of HIV single round pseudovirus in TZM-bl cells, ADA (R5), IC90 [4]
B1 | 2.3 nM | 6.83 nM | 7.78 nM | 77.8 nM | 561 nM | 2.25 nM | 24.3 nM | 2.33 nM | 17.3 nM
Ac-HTTWMEWDREINNYTSLIHSLIEESQNLQEKNEQELL-NH2 [C37(Q652L) (N-acetylated, C-term amidated)] | – | 28.2 nM | – | – | – | – | – | 114 nM | –
